US20230416363A1 (KADMON, published 2023)
Substitutions are numbered along the chain they refer to.

T1: mPD1 (soluble, ELISA of Examples 20 and 24) (mouse, UniProt Q02242 25-167, limits assumed)
T1 construct: also called Biotin-mPD1
T1 sequence (looked up): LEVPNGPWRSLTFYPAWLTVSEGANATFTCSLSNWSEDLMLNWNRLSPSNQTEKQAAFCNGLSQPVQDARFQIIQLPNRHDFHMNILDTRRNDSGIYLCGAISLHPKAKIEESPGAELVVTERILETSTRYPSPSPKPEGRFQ

T2: mPD-1-his (mouse, UniProt Q02242 25-167, limits assumed)
T2 construct: domain: IgV domain
T2 sequence: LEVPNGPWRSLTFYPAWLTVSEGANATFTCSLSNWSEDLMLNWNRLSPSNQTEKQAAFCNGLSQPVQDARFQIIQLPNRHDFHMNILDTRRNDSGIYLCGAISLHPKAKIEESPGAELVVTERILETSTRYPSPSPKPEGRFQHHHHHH

T3: mouse PD-1 expressed on cells (mouse, UniProt Q02242 25-288)
T3 sequence (looked up): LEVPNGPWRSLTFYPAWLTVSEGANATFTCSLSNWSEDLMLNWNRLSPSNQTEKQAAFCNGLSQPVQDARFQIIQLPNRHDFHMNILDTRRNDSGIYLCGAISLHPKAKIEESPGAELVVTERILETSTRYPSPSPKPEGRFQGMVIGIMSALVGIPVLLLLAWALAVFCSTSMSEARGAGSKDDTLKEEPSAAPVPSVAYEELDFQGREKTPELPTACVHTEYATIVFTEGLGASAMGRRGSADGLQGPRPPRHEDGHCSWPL

T4: mPD-1-Fc (mouse; human, UniProt Q02242 25-167, limits assumed)
T4 construct: domain: IgV domain; not shown: human IgG1 Fc
T4 sequence (looked up): T1 sequence (looked up)

B1: m3A7 (antibody, V domains shown)
VH: QVQLVQSGAEVKKPGASVKVSCKASGHTFTSYYIHWVRQAPGQGLEWMGIINPSGGSTSYAQKFQGRVTMTRDTSTSTVYMELSSLRSEDTAVYYCARDRAYGGAGDYWGQGTLVTVSS
VL: DIQMTQSPSSLSASVGDRVTITCRASRSISNWLAWYQQKPGKAPKLLIYAASSLQSGVPSRFSGSGSGTDFTLTISSLQPEDFATYYCQQSYSAPVTFGQGTKVEIK
notes: R3A9 derivative; also called 7115C
B2: m4D1 (antibody, V domains shown)
VH: B1 VH
VL: B1 VL with R27Q, N31A, A50K, Q55E, A94P, V96A, Q100G
notes: R3A9 derivative

Columns and labels:
[1] = target: T5, hPD1 (soluble, ELISA of Example 20) (human, UniProt Q15116 25-167, limits assumed); assay: ELISA, hPD1
T5 sequence (Q15116 25-167 limits assumed): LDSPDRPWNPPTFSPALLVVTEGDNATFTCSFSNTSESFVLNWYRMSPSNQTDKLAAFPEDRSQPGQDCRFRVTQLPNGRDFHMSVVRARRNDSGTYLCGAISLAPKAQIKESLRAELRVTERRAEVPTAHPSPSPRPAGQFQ

[2] = target: T1, mPD1 (soluble, ELISA of Examples 20 and …); assay: ELISA, biotin-mPD1 on streptavidin
[3] = target: T1, mPD1 (soluble, ELISA of Examples 20 and …); assay: ELISA, mPD1
[4] = target: T2, mPD-1-his; assay: SPR Biacore, mPD1-his (second m3A7 row)
[5] = target: T3, mouse PD-1 expressed on cells; assay: cell-based or functional assay
[6] = target: T1, mPD1 (soluble, ELISA of Examples 20 and …); assay: blocking ELISA, mPD1 to mPDL1
[7] = target: T3, mouse PD-1 expressed on cells; assay: flow cytometry, mPD1-eff cells
[8] = target: T4, mPD-1-Fc; assay: SPR Biacore, mPD1-Fc (second m3A7 row)
[9] = target: T4, mPD-1-Fc; assay: ELISA, mPD-1-Fc
[10] = target: T3, mouse PD-1 expressed on cells; assay: cell-based or functional assay; remark: listed apart in the source
[11] = target: T4, mPD-1-Fc; assay: blocking ELISA, mPD-1 to PD-L1
[12] = target: T6, hPD-1-Fc (human, UniProt Q15116 25-167); assay: SPR Biacore, hPD1-Fc (second m3A7 row)
T6 construct: domain: IgV domain; also called human PD-1-Fc; not shown: human IgG1 Fc
T6 sequence (Q15116 25-167 limits assumed): as above

[13] = target: T6, hPD-1-Fc; assay: SPR Biacore, hPD1-Fc
[14] = target: T5, hPD1 (soluble, ELISA of Example 20); assay: blocking ELISA, hPD1 to hPDL1
[15] = target: T2, mPD-1-his; assay: ELISA, mPD-1-his on streptavidin
[16] = target: T2, mPD-1-his; assay: SPR Biacore, mPD1-his
[17] = target: T3, mouse PD-1 expressed on cells; assay: flow cytometry, mPD-1-293 cells
[18] = target: T4, mPD-1-Fc; assay: ELISA, mPD-1-Fc on streptavidin
[19] = target: T3, mouse PD-1 expressed on cells; assay: flow cytometry, mPD1-293 cells
[20] = target: T4, mPD-1-Fc; assay: SPR Biacore, mPD1-Fc
[21] = target: T7, human PD-1 expressed on cells (human, UniProt Q15116 25-288); assay: flow cytometry, hPD1-Jurkat cells
T7 construct: whole, on cells
T7 sequence (Q15116 25-288): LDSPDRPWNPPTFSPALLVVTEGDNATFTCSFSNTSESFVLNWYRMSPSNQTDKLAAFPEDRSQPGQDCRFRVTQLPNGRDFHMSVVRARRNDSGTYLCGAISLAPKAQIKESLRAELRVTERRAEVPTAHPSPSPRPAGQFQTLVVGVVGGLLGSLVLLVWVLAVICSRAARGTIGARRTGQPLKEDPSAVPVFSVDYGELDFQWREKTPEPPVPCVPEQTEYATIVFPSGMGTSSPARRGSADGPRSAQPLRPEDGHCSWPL

[22] = target: T7, human PD-1 expressed on cells; assay: flow cytometry, hPD1-293 cells
[23] = target: T7, human PD-1 expressed on cells; assay: cell-based or functional assay

Binder | EC50 [1] | EC50 [2] | EC50 [3] | IC50 [6] | EC50 [7] | IC50, Promega blockade bioassay [10] | Kd [13] | koff [13] | kon [13] | IC50 [14] | Kd [16] | koff [16] | kon [16] | EC50 [19] | Kd [20] | koff [20] | kon [20] | further results
B1 | 0.63 nM | 0.268 nM | 0.349 nM | 0.537 nM | 0.27 nM | 0.561 nM | 103 nM | 0.0176 s⁻¹ | 171000 M⁻¹ s⁻¹ | 37.8 nM | 3.03 nM | 0.000823 s⁻¹ | 272000 M⁻¹ s⁻¹ | 0.609 nM | 2.53 nM | 0.000659 s⁻¹ | 261000 M⁻¹ s⁻¹ | Kd [4]: 1.98 nM; koff [4]: 0.000479 s⁻¹; kon [4]: 241000 M⁻¹ s⁻¹; IC 50, Promega assay [5]: 0.0709 µg/mL; Kd [8]: 1.86 nM; koff [8]: 0.000406 s⁻¹; kon [8]: 219000 M⁻¹ s⁻¹; EC50 [9]: 0.834 nM; IC50 [11]: 0.102 nM; Kd [12]: 19.9 nM; koff [12]: 0.00263 s⁻¹; kon [12]: 132000 M⁻¹ s⁻¹; EC50 [15]: 0.251 nM; EC50 [17]: 0.228 nM; EC50 [18]: 0.187 nM
B2 | 0.221 nM | 1.15 nM | 2.03 nM | 0.882 nM | 0.441 nM | 0.572 nM | 1.09 nM | 6.36e-05 s⁻¹ | 58300 M⁻¹ s⁻¹ | 6.02 nM | 2.87 nM | 0.000201 s⁻¹ | 70000 M⁻¹ s⁻¹ | 1.14 nM | 2.69 nM | 0.000179 s⁻¹ | 66300 M⁻¹ s⁻¹ | EC50 [21]: 0.738 nM; EC50 [22]: 1.48 nM; IC50, Promega blockade bioassay [23]: 2.12 nM
